These are literature values, as cited in paper PMC7539009.

The data set concerns the target VPS29 (Homo sapiens) (UniProt Q9UBQ0). Put plainly: ITC.

For the substance TBC1D5 132-158 (from UniProt Q92609), the Kd – broadly, the free concentration of one partner at which half of the binding sites on the other are occupied at equilibrium, for simple one-to-one binding – is 20 µM.
